B1: NIgG4B3A1(G4S)1 (Fc fusion)
chain 1: DVQLQESGGGLVQAGGSLRLSCAASGFIFRLAGMSWVRQAPGKGFEWVSGITMDGSTTNYADSVKGRFTISRDNSKNRLYLQMNSLKPEDTAVYYCARGAKGGYNDPRGQGTQVTVSGGGGSGPPCPPCPAPEFLGGPSVFLFPPKPKDTLMISRTPEVTCVVVDVSQEDPEVQFNWYVDGVEVHNAKTKPREEQFNSTYRVVSVLTVLHQDWLNGKEYKCKVSNKGLPSSIEKTISKAKGQPREPQVYTLPPCQEEMTKNQVSLWCLVKGFYPSDIAVEWESNGQPENNYKTTPPVLDSDGSFFLYSRLTVDKSRWQEGNVFSCSVMHEALHNHYTQKSLSLSLGK
chain 2: EVQLLESGGGLVQPGGSLRLSCAASGFTFGNYDMAWVRQAPGKRPEWVSSIDTGGDITHYADSVKGRFTISRDNAKNTLYLQMNSLRPEDTAVYWCATDEEYALGPNEFDYYGQGTLVTVSSGGGGSGPPCPPCPAPEFLGGPSVFLFPPKPKDTLMISRTPEVTCVVVDVSQEDPEVQFNWYVDGVEVHNAKTKPREEQFNSTYRVVSVLTVLHQDWLNGKEYKCKVSNKGLPSSIEKTISKAKGQPREPQVCTLPPSQEEMTKNQVSLSCAVKGFYPSDIAVEWESNGQPENNYKTTPPVLDSDGSFFLVSRLTVDKSRWQEGNVFSCSVMHEALHNHYTQKSLSLSLGK
B2: NIgG4B1A2(G4S)3 (Fc fusion)
chain 1: QVQLQESGGGLVQTGGSLRLSCAVHGRTFSNTGMGWFRQAPGNERQFVAIISPSGTSTYYADSVKGRFTISRDPAKNTVYLQMNSLKMDDTAVYYCAASYGSNWSTLRHQRRNEYDAWGQGTQVAVSGGGGSGGGGSGGGGSGPPCPPCPAPEFLGGPSVFLFPPKPKDTLMISRTPEVTCVVVDVSQEDPEVQFNWYVDGVEVHNAKTKPREEQFNSTYRVVSVLTVLHQDWLNGKEYKCKVSNKGLPSSIEKTISKAKGQPREPQVYTLPPCQEEMTKNQVSLWCLVKGFYPSDIAVEWESNGQPENNYKTTPPVLDSDGSFFLYSRLTVDKSRWQEGNVFSCSVMHEALHNHYTQKSLSLSLGK
chain 2: EVQLLESGGGLVQPGGSLRLSCAASGFRFGNYDMAWVRQAPGKRYEWVSSIDTGGDITHYADSVKGRFTISRDNAKNTLYLQMNSLRPEDTAEYWCATDEEYALGPNEFDYYGQGTLVTVSGGGGSGGGGSGGGGSGPPCPPCPAPEFLGGPSVFLFPPKPKDTLMISRTPEVTCVVVDVSQEDPEVQFNWYVDGVEVHNAKTKPREEQFNSTYRVVSVLTVLHQDWLNGKEYKCKVSNKGLPSSIEKTISKAKGQPREPQVCTLPPSQEEMTKNQVSLSCAVKGFYPSDIAVEWESNGQPENNYKTTPPVLDSDGSFFLVSRLTVDKSRWQEGNVFSCSVMHEALHNHYTQKSLSLSLGK
B3: NIgG4B3A1(G4S)2 (Fc fusion)
chain 1: DVQLQESGGGLVQAGGSLRLSCAASGFIFRLAGMSWVRQAPGKGFEWVSGITMDGSTTNYADSVKGRFTISRDNSKNRLYLQMNSLKPEDTAVYYCARGAKGGYNDPRGQGTQVTVSGGGGSGGGGSGPPCPPCPAPEFLGGPSVFLFPPKPKDTLMISRTPEVTCVVVDVSQEDPEVQFNWYVDGVEVHNAKTKPREEQFNSTYRVVSVLTVLHQDWLNGKEYKCKVSNKGLPSSIEKTISKAKGQPREPQVYTLPPCQEEMTKNQVSLWCLVKGFYPSDIAVEWESNGQPENNYKTTPPVLDSDGSFFLYSRLTVDKSRWQEGNVFSCSVMHEALHNHYTQKSLSLSLGK
chain 2: EVQLLESGGGLVQPGGSLRLSCAASGFTFGNYDMAWVRQAPGKRPEWVSSIDTGGDITHYADSVKGRFTISRDNAKNTLYLQMNSLRPEDTAVYWCATDEEYALGPNEFDYYGQGTLVTVSSGGGGSGGGGSGPPCPPCPAPEFLGGPSVFLFPPKPKDTLMISRTPEVTCVVVDVSQEDPEVQFNWYVDGVEVHNAKTKPREEQFNSTYRVVSVLTVLHQDWLNGKEYKCKVSNKGLPSSIEKTISKAKGQPREPQVCTLPPSQEEMTKNQVSLSCAVKGFYPSDIAVEWESNGQPENNYKTTPPVLDSDGSFFLVSRLTVDKSRWQEGNVFSCSVMHEALHNHYTQKSLSLSLGK
B4: NIgG4B3A1(G4S)3 (Fc fusion)
chain 1: DVQLQESGGGLVQAGGSLRLSCAASGFIFRLAGMSWVRQAPGKGFEWVSGITMDGSTTNYADSVKGRFTISRDNSKNRLYLQMNSLKPEDTAVYYCARGAKGGYNDPRGQGTQVTVSGGGGSGGGGSGGGGSGPPCPPCPAPEFLGGPSVFLFPPKPKDTLMISRTPEVTCVVVDVSQEDPEVQFNWYVDGVEVHNAKTKPREEQFNSTYRVVSVLTVLHQDWLNGKEYKCKVSNKGLPSSIEKTISKAKGQPREPQVYTLPPCQEEMTKNQVSLWCLVKGFYPSDIAVEWESNGQPENNYKTTPPVLDSDGSFFLYSRLTVDKSRWQEGNVFSCSVMHEALHNHYTQKSLSLSLGK
chain 2: EVQLLESGGGLVQPGGSLRLSCAASGFTFGNYDMAWVRQAPGKRPEWVSSIDTGGDITHYADSVKGRFTISRDNAKNTLYLQMNSLRPEDTAVYWCATDEEYALGPNEFDYYGQGTLVTVSSGGGGSGGGGSGGGGSGPPCPPCPAPEFLGGPSVFLFPPKPKDTLMISRTPEVTCVVVDVSQEDPEVQFNWYVDGVEVHNAKTKPREEQFNSTYRVVSVLTVLHQDWLNGKEYKCKVSNKGLPSSIEKTISKAKGQPREPQVCTLPPSQEEMTKNQVSLSCAVKGFYPSDIAVEWESNGQPENNYKTTPPVLDSDGSFFLVSRLTVDKSRWQEGNVFSCSVMHEALHNHYTQKSLSLSLGK
B5: NIgG4B1A2(G4S)1 (Fc fusion)
chain 1: QVQLQESGGGLVQTGGSLRLSCAVHGRTFSNTGMGWFRQAPGNERQFVAIISPSGTSTYYADSVKGRFTISRDPAKNTVYLQMNSLKMDDTAVYYCAASYGSNWSTLRHQRRNEYDAWGQGTQVAVSGGGGSGPPCPPCPAPEFLGGPSVFLFPPKPKDTLMISRTPEVTCVVVDVSQEDPEVQFNWYVDGVEVHNAKTKPREEQFNSTYRVVSVLTVLHQDWLNGKEYKCKVSNKGLPSSIEKTISKAKGQPREPQVYTLPPCQEEMTKNQVSLWCLVKGFYPSDIAVEWESNGQPENNYKTTPPVLDSDGSFFLYSRLTVDKSRWQEGNVFSCSVMHEALHNHYTQKSLSLSLGK
chain 2: EVQLLESGGGLVQPGGSLRLSCAASGFRFGNYDMAWVRQAPGKRYEWVSSIDTGGDITHYADSVKGRFTISRDNAKNTLYLQMNSLRPEDTAEYWCATDEEYALGPNEFDYYGQGTLVTVSGGGGSGPPCPPCPAPEFLGGPSVFLFPPKPKDTLMISRTPEVTCVVVDVSQEDPEVQFNWYVDGVEVHNAKTKPREEQFNSTYRVVSVLTVLHQDWLNGKEYKCKVSNKGLPSSIEKTISKAKGQPREPQVCTLPPSQEEMTKNQVSLSCAVKGFYPSDIAVEWESNGQPENNYKTTPPVLDSDGSFFLVSRLTVDKSRWQEGNVFSCSVMHEALHNHYTQKSLSLSLGK
B6: NIgG4B1A2(RS) (Fc fusion)
chain 1: QVQLQESGGGLVQTGGSLRLSCAVHGRTFSNTGMGWFRQAPGNERQFVAIISPSGTSTYYADSVKGRFTISRDPAKNTVYLQMNSLKMDDTAVYYCAASYGSNWSTLRHQRRNEYDAWGQGTQVAVSRSGPPCPPCPAPEFLGGPSVFLFPPKPKDTLMISRTPEVTCVVVDVSQEDPEVQFNWYVDGVEVHNAKTKPREEQFNSTYRVVSVLTVLHQDWLNGKEYKCKVSNKGLPSSIEKTISKAKGQPREPQVYTLPPCQEEMTKNQVSLWCLVKGFYPSDIAVEWESNGQPENNYKTTPPVLDSDGSFFLYSRLTVDKSRWQEGNVFSCSVMHEALHNHYTQKSLSLSLGK
chain 2: EVQLLESGGGLVQPGGSLRLSCAASGFRFGNYDMAWVRQAPGKRYEWVSSIDTGGDITHYADSVKGRFTISRDNAKNTLYLQMNSLRPEDTAEYWCATDEEYALGPNEFDYYGQGTLVTVSRSGPPCPPCPAPEFLGGPSVFLFPPKPKDTLMISRTPEVTCVVVDVSQEDPEVQFNWYVDGVEVHNAKTKPREEQFNSTYRVVSVLTVLHQDWLNGKEYKCKVSNKGLPSSIEKTISKAKGQPREPQVCTLPPSQEEMTKNQVSLSCAVKGFYPSDIAVEWESNGQPENNYKTTPPVLDSDGSFFLVSRLTVDKSRWQEGNVFSCSVMHEALHNHYTQKSLSLSLGK
B7: NIgG4B1A2(G4S)2 (Fc fusion)
chain 1: QVQLQESGGGLVQTGGSLRLSCAVHGRTFSNTGMGWFRQAPGNERQFVAIISPSGTSTYYADSVKGRFTISRDPAKNTVYLQMNSLKMDDTAVYYCAASYGSNWSTLRHQRRNEYDAWGQGTQVAVSGGGGSGGGGSGPPCPPCPAPEFLGGPSVFLFPPKPKDTLMISRTPEVTCVVVDVSQEDPEVQFNWYVDGVEVHNAKTKPREEQFNSTYRVVSVLTVLHQDWLNGKEYKCKVSNKGLPSSIEKTISKAKGQPREPQVYTLPPCQEEMTKNQVSLWCLVKGFYPSDIAVEWESNGQPENNYKTTPPVLDSDGSFFLYSRLTVDKSRWQEGNVFSCSVMHEALHNHYTQKSLSLSLGK
chain 2: EVQLLESGGGLVQPGGSLRLSCAASGFRFGNYDMAWVRQAPGKRYEWVSSIDTGGDITHYADSVKGRFTISRDNAKNTLYLQMNSLRPEDTAEYWCATDEEYALGPNEFDYYGQGTLVTVSGGGGSGGGGSGPPCPPCPAPEFLGGPSVFLFPPKPKDTLMISRTPEVTCVVVDVSQEDPEVQFNWYVDGVEVHNAKTKPREEQFNSTYRVVSVLTVLHQDWLNGKEYKCKVSNKGLPSSIEKTISKAKGQPREPQVCTLPPSQEEMTKNQVSLSCAVKGFYPSDIAVEWESNGQPENNYKTTPPVLDSDGSFFLVSRLTVDKSRWQEGNVFSCSVMHEALHNHYTQKSLSLSLGK
B8: CIgG4B1A2(RS) (Fc fusion)
chain 1: GPPCPPCPAPEFLGGPSVFLFPPKPKDTLMISRTPEVTCVVVDVSQEDPEVQFNWYVDGVEVHNAKTKPREEQFNSTYRVVSVLTVLHQDWLNGKEYKCKVSNKGLPSSIEKTISKAKGQPREPQVYTLPPCQEEMTKNQVSLWCLVKGFYPSDIAVEWESNGQPENNYKTTPPVLDSDGSFFLYSRLTVDKSRWQEGNVFSCSVMHEALHNHYTQKSLSLSLGKRSQVQLQESGGGLVQTGGSLRLSCAVHGRTFSNTGMGWFRQAPGNERQFVAIISPSGTSTYYADSVKGRFTISRDPAKNTVYLQMNSLKMDDTAVYYCAASYGSNWSTLRHQRRNEYDAWGQGTQVAVS
chain 2: GPPCPPCPAPEFLGGPSVFLFPPKPKDTLMISRTPEVTCVVVDVSQEDPEVQFNWYVDGVEVHNAKTKPREEQFNSTYRVVSVLTVLHQDWLNGKEYKCKVSNKGLPSSIEKTISKAKGQPREPQVCTLPPSQEEMTKNQVSLSCAVKGFYPSDIAVEWESNGQPENNYKTTPPVLDSDGSFFLVSRLTVDKSRWQEGNVFSCSVMHEALHNHYTQKSLSLSLGKRSEVQLLESGGGLVQPGGSLRLSCAASGFRFGNYDMAWVRQAPGKRYEWVSSIDTGGDITHYADSVKGRFTISRDNAKNTLYLQMNSLRPEDTAEYWCATDEEYALGPNEFDYYGQGTLVTVS

What follows are binders tested against mixture of three Der p 2 specific recombinant human IgE clones H10, H12, P4E (human) (UniProt P01854) (assay: RBL-SX38 IgE displacement, FACS).
mixture of three Der p 2 specific recombinant human IgE clones H10, H12, P4E (human), sequence (P01854 other isoform, or with tags, fused parts or gaps): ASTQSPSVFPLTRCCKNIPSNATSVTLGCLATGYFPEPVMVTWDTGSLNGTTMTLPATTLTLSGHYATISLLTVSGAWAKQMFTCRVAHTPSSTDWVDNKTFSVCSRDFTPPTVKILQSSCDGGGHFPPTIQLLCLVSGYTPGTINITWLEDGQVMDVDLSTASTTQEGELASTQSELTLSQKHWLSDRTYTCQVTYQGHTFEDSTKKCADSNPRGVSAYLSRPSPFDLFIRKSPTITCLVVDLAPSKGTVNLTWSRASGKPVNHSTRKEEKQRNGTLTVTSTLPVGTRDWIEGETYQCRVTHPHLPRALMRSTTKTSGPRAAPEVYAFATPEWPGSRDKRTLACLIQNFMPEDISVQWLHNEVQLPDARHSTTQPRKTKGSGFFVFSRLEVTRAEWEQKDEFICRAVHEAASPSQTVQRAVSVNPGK

**Q.** With B1 as the binder, how does the Max effect/effect 1 µM read?
**A.** Its Max effect/effect 1 µM is 94%.

**Q.** Which results are given for B2?
**A.** EC50: 0.5 nM; Max effect/effect 1 µM: 100%

**Q.** For B3, which Max effect/effect 1 µM is on record?
**A.** The Max effect/effect 1 µM was 94%.

**Q.** With B4 as the binder, how does the Max effect/effect 1 µM read?
**A.** Its Max effect/effect 1 µM is 93%.

**Q.** What does the source list for B5?
**A.** EC50: 0.4 nM; Max effect/effect 1 µM: 100%

**Q.** What does the source list for B6?
**A.** EC50: 0.6 nM; Max effect/effect 1 µM: 99%

**Q.** B7 was tested. Which EC50 did it give?
**A.** The EC50 was 0.4 nM.

**Q.** And the Max effect/effect 1 µM?
**A.** Its Max effect/effect 1 µM is 100%.

**Q.** B8 was tested. Which EC50 did it give?
**A.** Its EC50 is 11.9 nM.

**Q.** And the Max effect/effect 1 µM?
**A.** Its Max effect/effect 1 µM is 99%.
